Test results reported in patent publication US20210214413A1.

Molecular target: rhinovirus C15 virus (recombinant RV-C isolate C15, sucrose purified) (rhinovirus C15)
Assay: HeLa-expressed protein recovered by α-His IP, denatured and refolded, reacted with C15 virus, α-His IP, Western blot

B1: pHL-FLAG-CDHR3-His EC1-3 (1-345), HeLa-expressed (receptor)
chain: DYKDDDDKLHLILLPATGNVAENSPPGTSVHKFSVKLSASLSPVIPGFPQIVNSNPLTEAFRVNWLSGTYFEVVTTGMEQLDFETGPNIFDLQIYVKDEVGVTDLQVLTVQVTDVNEPPQFQGNLAEGLHLYIVERANPGFIYQVEAFDPEDTSRNIPLSYFLISPPKSFRMSANGTLFSTTELDFEAGHRSFHLIVEVRDSGGLKASTELQVNIVNLNDEVPRFTSPTRVYTVLEELSPGTIVANITAEDPDDEGFPSHLLYSITTVSKYFMINQLTGTIQVAQRIDRDAGELRQNPTISLEVLVKDRPYGGQENRIQITFIVEDVNDNPATCHHHHHH
- Binding % after refolding, relative to the same protein not refolded: 213%
